Reference: patent US20200123237A1

Target: IgG1-S4497 (human)
Experiment: cell-based or functional assay

EC50 of C3b deposition on Wood 46, purified classical pathway system: 0.668 mg/L
EC50 of C4b deposition on Wood 46, purified classical pathway system: 0.886 mg/L
EC50 of neutrophil-mediated phagocytic uptake of Wood 46, NHS devoid of IgG and IgM: 0.144 mg/L
EC50 of neutrophil-mediated phagocytic uptake of Wood 46, intact NHS: 0.096 mg/L
B1: IgG1-S4497 (antibody, not shown: a dimerising Fc or GST)
heavy: EVQLVESGGGLVQPGGSLRLSCSASGFSFNSFWMHWVRQVPGKGLVWISFTNNEGTTTAYADSVRGRFIISRDNAKNTLYLEMNNLRGEDTAVYYCARGDGGLDDWGQGTLVTVSS
light: DIQLTQSPDSLAVSLGERATINCKSSQSIFRTSRNKNLLNWYQQRPGQPPRLLIHWASTRKSGVPDRFSGSGFGTDFTLTITSLQAEDVAIYYCQQYFSPPYTFGQGTKLEIK
